B1: FEM1A (parent)
chain: NIVEYLIQEQPGQEQVAGGEAQPG

Variants of: B1
Assay: protein stability index of a GFP-peptide fusion (GPS, HEK-293T) (PSI 1-6); higher = more stable
Details: c terminus: a fixed tail appended
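Further: lentivirally expressed fusions sorted by FACS into six bins by GFP to DsRed ratio, PSI derived from sequencing read proportions per bin multiplied by bin number.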

Variant	protein stability index
NIVEYLIQEQPGQHQVAGGEAQPG	3.48
NIVEYLIQEQPGQWQVAGGEAQPG	2.25
NIVEYLIQEQPGQIQVAGGEAQPG	3.25
NIVEYLIQEQPGQSQVAGGEAQPG	3.21
NIVEYLIQEQPGQYQVAGGEAQPG	2.69
NIVEYLIQEQPGQLQVAGGEAQPG	3.06
NIVEYLIQEQPGQQQVAGGEAQPG	3.33
NIVEYLIQEQPGQKQVAGGEAQPG	3.85
NIVEYLIQEQPGQGQVAGGEAQPG	3.84
NIVEYLIQEQPGQFQVAGGEAQPG	2.62
NIVEYLIQEQPGQCQVAGGEAQPG	3.38
NIVEYLIQEQPGQTQVAGGEAQPG	4.21
NIVEYLIQEQPGQVQVAGGEAQPG	2.61
NIVEYLIQEQPGQDQVAGGEAQPG	4.39
NIVEYLIQEQPGQPQVAGGEAQPG	3.73
NIVEYLIQEQPGQAQVAGGEAQPG	4.06
NIVEYLIQEQPGQMQVAGGEAQPG	3.34
NIVEYLIQEQPGQNQVAGGEAQPG	3.54
NIVEYLIQEQPGQRQVAGGEAQPG	3.37
NIVEYLIQEQPGQEQVNGGEAQPG	5.16
NIVEYLIQEQPGQEQVSGGEAQPG	4.72
NIVEYLIQEQPGQEQVMGGEAQPG	3.96
NIVEYLIQEQPGQEQVDGGEAQPG	4.97
NIVEYLIQEQPGQEQVTGGEAQPG	3.91

Variant	protein stability index
NIVEYLIQEQPGQEQVQGGEAQPG	4.07
NIVEYLIQEQPGQEQVHGGEAQPG	4.38
NIVEYLIQEQPGQEQVRGGEAQPG	3.5
NIVEYLIQEQPGQEQVWGGEAQPG	2.73
NIVEYLIQEQPGQEQVGGGEAQPG	4.71
NIVEYLIQEQPGQEQVYGGEAQPG	3.68
NIVEYLIQEQPGQEQVVGGEAQPG	3.68
NIVEYLIQEQPGQEQVCGGEAQPG	3.37
NIVEYLIQEQPGQEQVLGGEAQPG	3.33
NIVEYLIQEQPGQEQVFGGEAQPG	3.59
NIVEYLIQEQPGQEQVPGGEAQPG	4.24
NIVEYLIQEQPGQEQVKGGEAQPG	4.19
NIVEYLIQEQPGQEQVIGGEAQPG	3.87
NIVEYLIQEQPGQEQVEGGEAQPG	4.6
NIVEYLIQEQPQQEQVAGGEAQPG	4.61
NIVEYLIQEQPLQEQVAGGEAQPG	3.44
NIVEYLIQEQPRQEQVAGGEAQPG	2.94
NIVEYLIQEQPCQEQVAGGEAQPG	4.03
NIVEYLIQEQPNQEQVAGGEAQPG	4.5
NIVEYLIQEQPTQEQVAGGEAQPG	3.87
NIVEYLIQEQPHQEQVAGGEAQPG	4.24
NIVEYLIQEQPPQEQVAGGEAQPG	4.87
NIVEYLIQEQPDQEQVAGGEAQPG	4.69
NIVEYLIQEQPFQEQVAGGEAQPG	3.09

Variant	protein stability index
NIVEYLIQEQPEQEQVAGGEAQPG	4.73
NIVEYLIQEQPYQEQVAGGEAQPG	3.12
NIVEYLIQEQPVQEQVAGGEAQPG	3.95
NIVEYLIQEQPKQEQVAGGEAQPG	4.19
NIVEYLIQEQPSQEQVAGGEAQPG	4.65
NIVEYLIQEQPWQEQVAGGEAQPG	2.89
NIVEYLIQEQPMQEQVAGGEAQPG	4.03
NIVEYLIQEQPAQEQVAGGEAQPG	3.83
NIVEYLIQEQPIQEQVAGGEAQPG	3.86
NIVEYLIQEQPGQEQVADGEAQPG	5.01
NIVEYLIQEQPGQEQVAAGEAQPG	4.2
NIVEYLIQEQPGQEQVACGEAQPG	3.8
NIVEYLIQEQLGQEQVAGGEAQPG	2.21
NIVEYLIQEQEGQEQVAGGEAQPG	4.27
NIVEYLIQEQKGQEQVAGGEAQPG	3.74
NIVEYLIQEQWGQEQVAGGEAQPG	2.13
NIVEYLIQEQIGQEQVAGGEAQPG	2.65
NIVEYLIQEQCGQEQVAGGEAQPG	3.11
NIVEYLIQEQRGQEQVAGGEAQPG	3.42
NIVEYLIQEQTGQEQVAGGEAQPG	3.88
NIVEYLIQEQVGQEQVAGGEAQPG	3.28
NIVEYLIQEQHGQEQVAGGEAQPG	3.6
NIVEYLIQEQQGQEQVAGGEAQPG	3.69
NIVEYLIQEQFGQEQVAGGEAQPG	2.75

Variant	protein stability index
NIVEYLIQEQYGQEQVAGGEAQPG	2.65
NIVEYLIQEQNGQEQVAGGEAQPG	3.8
NIVEYLIQEQGGQEQVAGGEAQPG	3.89
NIVEYLIQEQMGQEQVAGGEAQPG	2.6
NIVEYLIQEQDGQEQVAGGEAQPG	4.47
NIVEYLIQEQSGQEQVAGGEAQPG	3.96
NIVEYLIQEQAGQEQVAGGEAQPG	3.98
NIVEYLIQRQPGQEQVAGGEAQPG	2.88
NIVEYLIQYQPGQEQVAGGEAQPG	2.42
NIVEYLIQAQPGQEQVAGGEAQPG	2.91
NIVEYLIQMQPGQEQVAGGEAQPG	3.35
NIVEYLIQIQPGQEQVAGGEAQPG	2.3
NIVEYLIQGQPGQEQVAGGEAQPG	3.71
NIVEYLIQDQPGQEQVAGGEAQPG	4.49
NIVEYLIQWQPGQEQVAGGEAQPG	2.45
NIVEYLIQNQPGQEQVAGGEAQPG	3.38
NIVEYLIQSQPGQEQVAGGEAQPG	3.36
NIVEYLIQFQPGQEQVAGGEAQPG	2.79
NIVEYLIQVQPGQEQVAGGEAQPG	2.06
NIVEYLIQCQPGQEQVAGGEAQPG	3
NIVEYLIQHQPGQEQVAGGEAQPG	2.95
NIVEYLIQTQPGQEQVAGGEAQPG	3.15
NIVEYLIQKQPGQEQVAGGEAQPG	3.71
NIVEYLIQQQPGQEQVAGGEAQPG	3.52

Variant	protein stability index
NIVEYLIQPQPGQEQVAGGEAQPG	3.71
NIVEYLIQLQPGQEQVAGGEAQPG	2.27
NIVEYLIQEQPGQEQLAGGEAQPG	3.94
NIVEYLIQEQPGQEQDAGGEAQPG	4.16
NIVEYLIQEQPGQEQSAGGEAQPG	3.86
NIVEYLIQEQPGQEQFAGGEAQPG	3.03
NIVEYLIQEQPGQEQAAGGEAQPG	4.52
NIVEYLIQEQPGQEQTAGGEAQPG	4.42
NIVEYLIQEQPGQEQCAGGEAQPG	4.02
NIVEYLIQEQPGQEQMAGGEAQPG	4.68
NIVEYLIQEQPGQEQRAGGEAQPG	4.2
NIVEYLIQEQPGQEQHAGGEAQPG	4.36
NIVEYLIQEQPGQEQIAGGEAQPG	3.86
NIVEYLIQEQPGQEQWAGGEAQPG	3.81
NIVEYLIQEQPGQEQYAGGEAQPG	4.05
NIVEYLIQEQPGQEQQAGGEAQPG	4.3
NIVEYLIQEQPGQEQKAGGEAQPG	4.29
NIVEYLIQEQPGQEQPAGGEAQPG	4.29
NIVEYLIQEQPGQEQNAGGEAQPG	3.87
NIVEYLIQEQPGQEQGAGGEAQPG	4.6
NIVEYLIQEQPGQEQEAGGEAQPG	4.35
NIVEYLIQEMPGQEQVAGGEAQPG	3.21
NIVEYLIQEEPGQEQVAGGEAQPG	4.62
NIVEYLIQEHPGQEQVAGGEAQPG	3.88

Variant	protein stability index
NIVEYLIQEYPGQEQVAGGEAQPG	3.09
NIVEYLIQERPGQEQVAGGEAQPG	4.03
NIVEYLIQEWPGQEQVAGGEAQPG	2
NIVEYLIQEFPGQEQVAGGEAQPG	3.16
NIVEYLIQEKPGQEQVAGGEAQPG	4.3
NIVEYLIQEDPGQEQVAGGEAQPG	4.37
NIVEYLIQESPGQEQVAGGEAQPG	4.53
NIVEYLIQEIPGQEQVAGGEAQPG	3.75
NIVEYLIQELPGQEQVAGGEAQPG	3.43
NIVEYLIQEVPGQEQVAGGEAQPG	3.22
NIVEYLIQEPPGQEQVAGGEAQPG	4.54
NIVEYLIQENPGQEQVAGGEAQPG	4.27
NIVEYLIQETPGQEQVAGGEAQPG	3.69
NIVEYLIQECPGQEQVAGGEAQPG	3.83
NIVEYLIQEAPGQEQVAGGEAQPG	4.34
NIVEYLIQEQPGREQVAGGEAQPG	3.79
NIVEYLIQEQPGHEQVAGGEAQPG	4.04
NIVEYLIQEQPGNEQVAGGEAQPG	4.42
NIVEYLIQEQPGFEQVAGGEAQPG	3.78
NIVEYLIQEQPGSEQVAGGEAQPG	3.85
NIVEYLIQEQPGAEQVAGGEAQPG	4.02
NIVEYLIQEQPGKEQVAGGEAQPG	4.48
NIVEYLIQEQPGIEQVAGGEAQPG	3.35
NIVEYLIQEQPGLEQVAGGEAQPG	3.27

Variant	protein stability index
NIVEYLIQEQPGGEQVAGGEAQPG	4.18
NIVEYLIQEQPGYEQVAGGEAQPG	3.72
NIVEYLIQEQPGPEQVAGGEAQPG	4.26
NIVEYLIQEQPGEEQVAGGEAQPG	4.79
NIVEYLIQEQPGDEQVAGGEAQPG	4.11
NIVEYLIQEQPGVEQVAGGEAQPG	4.06
NIVEYLIQEQPGTEQVAGGEAQPG	3.94
NIVEYLIQEQPGWEQVAGGEAQPG	3.18
NIVEYLIQEQPGMEQVAGGEAQPG	3.86
NIVEYLIQEQPGQEVVAGGEAQPG	3.66
NIVEYLIQEQPGQELVAGGEAQPG	3.53
NIVEYLIQEQPGQEFVAGGEAQPG	3.24
NIVEYLIQEQPGQEKVAGGEAQPG	3.91
NIVEYLIQEQPGQEWVAGGEAQPG	3.22
NIVEYLIQEQPGQECVAGGEAQPG	4.19
NIVEYLIQEQPGQEGVAGGEAQPG	4.78
NIVEYLIQEQPGQEYVAGGEAQPG	3.67
NIVEYLIQEQPGQEIVAGGEAQPG	4.08
NIVEYLIQEQPGQEDVAGGEAQPG	4.08
NIVEYLIQEQPGQENVAGGEAQPG	4.56
NIVEYLIQEQPGQEHVAGGEAQPG	4.02
NIVEYLIQEQPGQEMVAGGEAQPG	3.78
NIVEYLIQEQPGQEEVAGGEAQPG	4.79
NIVEYLIQEQPGQETVAGGEAQPG	3.17

Variant	protein stability index
NIVEYLIQEQPGQEAVAGGEAQPG	4.2
NIVEYLIQEQPGQERVAGGEAQPG	3.78
NIVEYLIQEQPGQESVAGGEAQPG	4.52
NIVEYLIQEQPGQEPVAGGEAQPG	4.32
NIVEYLITEQPGQEQVAGGEAQPG	4.88
NIVEYLIYEQPGQEQVAGGEAQPG	3.36
NIVEYLIVEQPGQEQVAGGEAQPG	3.34
NIVEYLINEQPGQEQVAGGEAQPG	4.42
NIVEYLIIEQPGQEQVAGGEAQPG	3.18
NIVEYLIGEQPGQEQVAGGEAQPG	4.26
NIVEYLIKEQPGQEQVAGGEAQPG	4.06
NIVEYLIFEQPGQEQVAGGEAQPG	2.94
NIVEYLIHEQPGQEQVAGGEAQPG	3.93
NIVEYLISEQPGQEQVAGGEAQPG	4.09
NIVEYLIPEQPGQEQVAGGEAQPG	4.71
NIVEYLILEQPGQEQVAGGEAQPG	4.39
NIVEYLIWEQPGQEQVAGGEAQPG	3.33
NIVEYLIMEQPGQEQVAGGEAQPG	3.66
NIVEYLIEEQPGQEQVAGGEAQPG	4.7
NIVEYLIREQPGQEQVAGGEAQPG	3.11
